Experimental data: the supplement of paper PMC10567573

B1: PDS5B (parent)
chain: ITYPPGVKEISDKISKEEMVRRLK
B2: ACSBG2 (parent)
chain: TPMTIPEFFRESVNRFGTYPALAS

Variants of: B1
Assay: protein stability index of a GFP-peptide fusion (GPS, HEK-293T) (PSI 1-6); higher = more stable
Conditions: c terminus: a fixed tail appended
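Note: lentivirally expressed fusions sorted by FACS into six bins by GFP to DsRed ratio, PSI derived from sequencing read proportions per bin multiplied by bin number.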

Protein stability index of substitutions, site by site:
K8: T 4.57, Q 4.29, Y 3.21, R 3.99, F 3.15, W 3.09, A 4.5, P 3.69
D12: F 2.71, R 3.19, W 2.85, I 3.04, A 2.75, T 3.69
S15: Q 3.65, D 4.26, W 2.13, M 4.01, E 4.81, R 3.7, H 4.52, N 3.89
E18: I 2.84, K 3.17, L 1.84, C 3.86, M 3.12
K16: A 3.92, D 3.56, H 3.75, T 3.06, V 3.36
E17: K 3.82, H 4.17, N 3.75, T 4.68, A 3.14, Y 2, F 2.41, G 3.52
P4: T 3.15, V 2.97, K 3.61, M 3, D 3.24, R 3.43
P5: Q 4.17, I 4.29, W 3.15, Y 2.12, A 4.44, K 3.74, L 3.7, R 3.81
I10: Y 4.44, S 4.53, R 3.74, V 4.62, H 3.62
R21: F 3.85, I 3.41, S 4.45, N 3.44, C 3.96, E 3.69
V20: Y 4.2, F 3.6, D 5.06, K 4.17, I 3.42, W 3.38, P 4.26, M 3.81, A 3.59
M19: S 5.02, H 4.74, P 4.64, G 4.29
R22: H 3.88, C 2.9, A 3.76, T 4.41, D 4.92
K13: C 2.79, H 3.7, S 4.35, G 3.75, D 4.69, P 4.52, N 3.72, R 4.39
E9: G 4.19, A 4.16, R 2.11, F 2.97, M 3.51, W 2.24, I 3.15, Q 3.35, L 2.09
G6: Q 3.73, I 3.55, T 4.31, V 3.27, N 3.54, R 4
I14: Y 2.68, V 4.02, C 3.27
T2: V 2.4, N 3.79, S 3.72, W 3.45, K 3.55, E 3.86
I1: V 4.62, T 4.96, W 4.64, N 5.13, S 4.78, P 4.78
L23: N 4.49, R 4.59, W 3.1, V 4.29, G 4.84, S 5.11
K24: A 3.58, N 3.77, D 4.78, M 3.11, T 4.13, C 3.13, V 3.61, L 2.81
S11: T 4.08, Q 4.16, G 3.92, A 3.85, W 2.67, V 2.8, H 4.04, E 4.04
V7: I 4.43, K 4.55, H 4.04, N 4.24, R 4.5, M 4.06, Y 3.77
Y3: E 4.47, A 4.48, H 4.43, F 3.85, I 3.97

Variants of: B2
Assay: as above
Conditions: c terminus: a fixed tail appended

Protein stability index of substitutions, site by site:
F8: S 2.9, D 3.19, L 2.66, T 2.8, A 2.99, W 2.09, R 2.39, Q 2.65, N 3.19, E 2.35, C 2.7, P 2.72, Y 2.4, G 3.02, I 2.42, V 2.14, M 2.35, K 3.02, H 2.45
P6: K 2.15, Q 1.93, N 2.05, L 3.27, Y 1.99, F 4.36, V 1.41, M 3.03, D 1.76, T 1.88, C 1.89, W 2.67, I 3, E 2.15, A 1.8, H 2.38, S 1.94, G 2.08, R 2.08
E7: Y 1.52, A 2.26, H 2.94, I 2.65, S 2, W 1.74, M 2.63, F 2.93, K 2.25, P 2.24, L 2.15, R 2.19, Q 2.02, D 2.13, G 2.14, V 1.9, N 2.63, T 2.19, C 2.19
T4: W 2.19, C 2.36, Y 2.62, Q 2.13, P 2.73, M 2.17, K 2.31, R 2.32, I 1.88, A 2.62, H 2.38, V 3.26, L 1.86, S 1.99, F 1.65, N 2.4, G 2.34, D 2.23, E 2.52
F9: S 2.71, R 2.88, P 2.79, A 2.42, V 2.36, K 2.67, G 3.05, Y 2.71, Q 2.37, M 2.45, T 3.4, H 2.98, I 2.27, N 3.16, C 2.17, L 1.76, D 3.36, W 1.92, E 3.41
R10: G 2.37, D 2.75, E 2.43, F 2.04, A 2.61, H 2.15, I 1.51, C 1.5
P2: A 2, G 2.12, H 2.29, V 1.98, L 1.93, S 2.41, I 1.44, D 2.65, K 2.01, C 1.72, E 2.89, T 2.35, N 2.2, Y 2.88, M 2.55, Q 2.4, W 1.4, F 1.83, R 2.12
T1: P 2.43, W 2, L 2.08, A 2.28, H 2.07, G 2.13, D 2.94, I 1.93, C 1.73, K 3.04, F 2.24, M 1.85, Y 2.27, R 2.34, S 2.13, V 1.93, E 2.12, Q 2.44, N 2.12
M3: N 2.62, Q 3.21, F 2.14, A 2.34, K 2.46, G 2.54, C 2.34, T 2.55, P 2.02, E 2.44, H 2.37, Y 2.49, V 2.11, D 2.52, I 2.5, S 2.8, L 2.09, R 2.61, W 1.69
I5: T 2.67, H 2.39, V 2.03, M 2.37, R 2.97, F 2.23, Q 3.5, N 2.39, Y 2.05, W 2.18, L 1.97, P 2.5, A 2.44, K 2.19, E 2.84, S 2.51, G 2.84, D 2.7, C 2.58
